System: MS2 coat protein
Experiment: apparent KD of MS2 coat protein; designed switch direction (-1 OFF switch, 1 ON switch): -1; higher = weaker reporter binding
How it was run: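 Normalised cluster fluorescence was curve-fitted, and each design's median over clusters is its apparent KD. Before this, SNAP-549-labelled MS2 coat protein was titrated from 0.7 or 1.5 nM, doubling to 3 µM, over RNA switches transcribed on Illumina chips by stalled E. coli RNA polymerase. Titrations had no input, 200 uM small-molecule ligand, or an oligonucleotide input, and steps lasted 0.8–1.5 h (lowest) to 10–20 min (highest).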

[1] = Eterna round: R95, input ligand: microRNA oligo, concentration not stated
[2] = input ligand: microRNA oligo, concentration not stated
[3] = Eterna round: R95, input ligand: FMN 200 uM
[4] = Eterna round: R95, input ligand: none

Sequence	apparent KD of MS2 coat protein (input ligand: FMN 200 uM) [nM]	apparent KD of MS2 coat protein (input ligand: none) [nM]	apparent KD of MS2 coat protein [1] [nM]	apparent KD of MS2 coat protein [2] [nM]	apparent KD of MS2 coat protein [3] [nM]	apparent KD of MS2 coat protein [4] [nM]
GGUGUGCUAGGAUAUGCUUUGGGCUCGCUUACCUUCGUUUUACUUGAGGAUCACCCAAGUAGAAGGUGCUUGCC [salish99_ex2_r4_039] (Eterna round: R97, puzzle: Exclusion 2)	13.1	12.4				
CCUCAGUAAGGAUAUCAGCUUAUAAAGUUGGUAAUGAGAGCUGAGAAGGUACAUGAGGAUCACCCAUGUUAGUU [JL Zatite mod 5] (puzzle: Exclusion 4)			20.9			
CCCAGUUAGUCAGGAUAUCUUACAUGAGGAUCACCCAUGUAAUAAAUGAGGAUUUCGGGUGUCUAAGAGAAGGGACGGAUAGGC [Ostracism 27 - Jieux - Exclusion NG 2] (Eterna round: R96, puzzle: Exclusion NG 2)	22.3	19.4		9.5		
UUGACGUCGUCAGGAUAUAGUUUUAAUGUCAUGCGUAUGUUCUUACAUGAGGAUCACCCAUGUCGCUAGAAGGGACUAAAGAUU [JR_ExcNG2_Sub011] (Eterna round: R96, puzzle: Exclusion NG 2)	27.6	34.7		23.5		
AUCCUGUCAGGAUAUCUAGUUAAAUACAUGAGGAUCACCCAUGUCACUGGGCCGUCCUUAAGAGAAGGGACAGGCG [Edabe] (puzzle: Exclusion 5)			34.5		169	39.7
UCGCGAAGAGGAUAUACAUAGAAAUAGAUUCAUGUAAAACUACAUGAGGAUCACCCAUGUAGAAGGCUUUGCGU [Mat - Exclusion 2 - JL Mod - D60] (Eterna round: R97, puzzle: Exclusion 2)	108	17				
UUAAAUCAUGUAGGAUAUGCGUGGAGAAGCUAUGCAGAAGGACAUGAGGAUCACCCAUGUGCUUCCGUCUGAGAACAGACGGUA [Mat - Exclusion NG 1 - Mod of JL - D13] (Eterna round: R96, puzzle: Exclusion NG 1)	210	45.7		49.9		
UAAUACAAGUAAGGAUUCUACAUGAGGAUCACCCAUGUGCUCGUCUUAUAAAGUACUAUCACGAAAGUGAUAGUACU [Mat - Sensor v3 - turn-off var 1 - Eli Mod - D100] (puzzle: Sensor v3, turn-off variant 1)			199		21.8	22.5
CAGUACUGAGGAUAUACAUGAGGAUCACCCAUGUGUCUUCAAUUAGGAAACUAGUUAUGUAGAAGGCAGUACUG [Omei Ex3 Mod of Eli 4.27 v9] (Eterna round: R97, puzzle: Exclusion 3)	770	62.2				
CCAACUCAGGAGGAUAUCUCCGCGAGUUCACGAAGAGAAGGCCUGACAUGAGGAUCACCCAUGUGUCCAUGAGG [Eternabot (Original) Solution 8] (Eterna round: R97, puzzle: Exclusion 6)	106	69.6				
UCGACGUCGUCAGGAUAUAGUUUUAAUGUCAUGCUUUUGUUUUUACAUGAGGAUCACCCAUGUCGCUAGAAGGGACUAAAGAUU [JR_ExcNG2_Sub013] (Eterna round: R96, puzzle: Exclusion NG 2)	36.7	41.7		34.1		
GUUUCACAUGAGGAUCACCCAUGUGAGGAUAUCAAUUUGUUAACCGUAGUUAAUAGAUUGAGAAGGCGCGUGAU [JRxlusion 2- Jieux - Exclusion 1] (Eterna round: R97, puzzle: Exclusion 1)	64.5	49				
CGAUCCGUAGAGGAUAUAGGACGUCAUAGCGAUUUAGAAGGCUACACAUGAGGAUCACCCAUGUACAUUUCAUA [Eternabot (L1) Solution 60] (Eterna round: R97, puzzle: Exclusion 6)	18.9	18.1				
UAAACAUGGAUAUAACAGUACAUGAGGAUCACCCAUGUUAAUACGAUAGAUUAUAACAAGCUUUUUUGUCGUCUUAA [Cooked Book] (Eterna round: R97, puzzle: Sensor, turn-off variant 1)	116	85.4				
GGGCUGUCAGGAUAUGUGUGUGUGUGUGAAAGCGCGCGCGCGCAGAAGGGACAUGAGGAUCACCCAUGUGGCCC [-35.3, -34.3 kcal, A 20%, 6bis-0] (Eterna round: R97, puzzle: Exclusion 4)	32.1	33				
GGAGCCUUAGGAUAUACAUGAGGAUCACCCAUGUGAUGUCGAAGCAAGGGUCUCCUAGGUAGAAGGAAGACAAU [Eternabot (L1) Solution 90] (Eterna round: R97, puzzle: Exclusion 3)	19.4	17.9				
GGUGAGCUAGGAUAUGCUUUGGGCACGCAUUCCUUCGAUAAACUUGAGGAUCACCCAAGUAGAAGGAGCUUGCC [salish99_ex2_r4_030] (Eterna round: R97, puzzle: Exclusion 2)	18.1	12.9				

Sequence	apparent KD of MS2 coat protein (input ligand: FMN 200 uM) [nM]	apparent KD of MS2 coat protein (input ligand: none) [nM]	apparent KD of MS2 coat protein [1] [nM]	apparent KD of MS2 coat protein [2] [nM]	apparent KD of MS2 coat protein [3] [nM]	apparent KD of MS2 coat protein [4] [nM]
AAGGAUCGAGGAUAUACAUAGAUACAGAUUCAUGUAGAACUACAUGAGGAUCACCCAUGUAGAAGGCGAUCCUA [Mat - Same state - Mayanna Mod - D120] (Eterna round: R96, puzzle: Exclusion 2)	367	41.3		31.1		
AAAGACAGAGGAUAUGCACGCCGACCCGGGCGGGAAGUCGGACAUGAGGAUCACCCAUGUAGAAGGCUGAGAAA [Exclss2-VII] (puzzle: Exclusion 2)			10.5			
ACUAGCUUUUUGCAUAGUAGGUUUGGUGCUUCGUAUGCUACAUGAGGAUCACCCAUGUUUUACUGAUGUCGUCGUUU [JR_SV3TOV2_Sub094] (puzzle: Sensor v3, turn-off variant 2)			52.9		32.7	32.3
AGAUCUAUCACGAAAGUGAUAGAUCAAAUUAGUUUUUAAACAUGAGGAUCACCCAUGUCCUAGUGGGCUAGUCUUAU [Mat - Sensor v2 - var 2 - Mod - D135] (Eterna round: R96, puzzle: Sensor v2, turn-off variant 2)	236	239		167		
UUAUUAUAUGUAGGAUAUGCGUAUUAUUGUUAUGCAGAAGGACAUGAGGAUCACCCAUGUAUAUUAUUGUUAUGUAUUAUAUAU [Title] (Eterna round: R96, puzzle: Exclusion NG 1)				26.6		
AAAUAAAACAAGCAAUAAAACAUGAGGAUCACCCAUGUAAAGGGUGAAGUUCGCACCCAAAAAUAAAAUAAAUAAAA [Denovo Take 6, 5] (Eterna round: R96, puzzle: Sensor v2, turn-off variant)	22.1	25		39.6		
GUACUGAGGCUUUGCUUUAGUCGUACAUGAGGAUCACCCAUGUAGGAUAUGGUAGGCUUUGCUUACCAGAAGGACAGAGUGAUC [JL EXNG3 1.22] (Eterna round: R96, puzzle: Exclusion NG 3)				188		
AGCUUUUUGCUCGUCUUAUACAUGAGGAUCACCCAUGUAUUGGACCACAUCGAUAGAUGUGGACCAAGAAGCAUGGU [Omdei Mir OFFv1 C3] (Eterna round: R97, puzzle: Sensor, turn-off variant 1)	46.8	45.2				
UUUUGUUCAGGAUAUGUAGAAUUUAACAUGAGGAUCACCCAUGUAGAUCCUGAAUAAACUACAGAAGGGAACAUUU [Mat - Exclusion 5 - Eli Mod - D15] (Eterna round: R97, puzzle: Exclusion 5)	215	27.4				
GUGAUCUAUCAUGUAAUAAACAUGAGGAUCACCCAUGUAGACAAGUUUUUUGCUCGUCUUAUAAUAAGAUAGAUCAC [Antenna 15 - Jieux - Sensor, turn-off variant 1] (Eterna round: R97, puzzle: Sensor, turn-off variant 1)	16.3	15.9				
UCAUACGGUGAGGAUAUCUCCACUAAAGUGUGAAGAGAAGGCGCUACAUGAGGAUCACCCAUGUCUAUGGGCAG [Ex-6 Malc#15] (puzzle: Exclusion 6)			75		37.4	109
CGGAAAUCCUAGGAUAUGCUAGACGAAAGUCUAGCAGAAGGAGGAACAUGAGGAUCACCCAUGUGUCCUAUCCG [Mat - Exclusion 6 - Eli Mod - D16] (Eterna round: R97, puzzle: Exclusion 6)	26	17.1				
AGGAGUAGUAUCCGAUCCUACAUGAGGAUCACCCAUGUAGCUAGACGUGCACGCGAUGCUCGUCAGACUACCAGAUG [salish99_TOv1_r3_034] (puzzle: Sensor v3, turn-off variant 1)			116		99.4	143
GAGUGACAUGAGGAUCACCCAUGUGAGGAUAUCGGACGGACCAAAUUAACAAUAAUUGCGAGAAGGCACAUCGG [Exclusion 1 V14] (puzzle: Exclusion 1)			52.1			
UAUCAUCAUGUAGGAUAUGCGUGGCAAAGCUAUGCAGAAGGACAUGAGGAUCACCCAUGUUCUAGCGUCUGAGUACAGAUGCUA [Mat - Exclusion NG 1 - Mod of JL - D75] (Eterna round: R96, puzzle: Exclusion NG 1)	278	83.7		66.4		
ACAUGAAGAUAGGAUAUCCGCGAAAAUGGUCUAGGAGAAGGGUCUACAUGAGGAUCACCCAUGUAGCAGUGGAU [Eternabot (L1) Solution 79] (Eterna round: R97, puzzle: Exclusion 6)	14.7	16.7				
